*1 amine or outer side, *2 acyl side, *3 side chain or, on linkers, in order; H or OH if unused. Where a SMILES comes first, the peptide text is derived from it. Bridges are numbered along the chain shown (N, C = ends). [ ]: non-standard residue; d: D form. The star is where a group is joined. DOTA = O=C(O)CN1CCN(CC(=O)O)CCN(CC(=O)*)CCN(CC(=O)O)CC1; 1Nal = N[C@@H](Cc1cccc2ccccc12)C(=O)O; TBMB = c1c(C[*:1])cc(C[*:3])cc1C[*:2]; Tle = CC(C)(C)[C@H](N)C(=O)O
Tested on: HT1080 tumor
Experiment: Organ distribution of 177Lu-labelled peptides in HT1080 xenograft mice
Assay type: in vivo, BALB/c nu/nu mice
Conditions: 1 h post injection

C[C@H](NC(=O)CN1CCN(CC(=O)O)CCN(CC(=O)O)CCN(CC(=O)O)CC1)C(=O)N[C@H]1CSCc2cc3cc(c2)CSC[C@H](NC(=O)[C@@H](C)NC(=O)[C@H](Cc2cccc4ccccc24)NC(=O)[C@H](CCC(=O)O)NC(=O)[C@H](CC(N)=O)NC(=O)[C@@H](C)NC1=O)C(=O)N[C@@H](CCC(=O)O)C(=O)N[C@@H](CC(=O)O)C(=O)N[C@@H](Cc1ccccc1)C(=O)N[C@@H](Cc1ccc(O)cc1)C(=O)N[C@@H](CC(=O)O)C(=O)N[C@@H](C(C)(C)C)C(=O)N[C@H](C(N)=O)CSC3 [I-23] ({DOTA}-AC[dA]NE[1Nal][dA]CEDFYD[Tle]C-NH2; linker 2-8-15 via TBMB)
blocking of tumor uptake at a dose of 500 pmoles: slightly blocked | blocking of tumor uptake using 5 nmoles: nearly completely blocked | tumor uptake compared to 17-69-07-N144: significantly higher tumor uptake
